WO2023190851A1

Target: SARS-CoV-2 Spike RBD, His Tag (B.1.1.529/Omicron) (SARS-CoV-2, Omicron B.1.1.529 (BA.1) lineage) (UniProt P0DTC2)

Substance: ADG2 (antibody)
- binding inhibition rate (%) at 2 μg/ml: < 30%

Substance: AZD1061 (antibody)
- binding inhibition rate (%) at 2 μg/ml: < 30%

Substance: AZD8895 (antibody)
- binding inhibition rate (%) at 2 μg/ml: < 30%

Substance: LY_CoV16 (antibody)
- binding inhibition rate (%) at 2 μg/ml: < 30%

Substance: LY_CoV555 (antibody)
- binding inhibition rate (%) at 2 μg/ml: < 30%

Substance: REGN10933 (antibody)
- binding inhibition rate (%) at 2 μg/ml: < 30%

Substance: REGN10987 (antibody)
- binding inhibition rate (%) at 2 μg/ml: < 30%

Substance: S309 (antibody)
- binding inhibition rate (%) at 2 μg/ml: < 30%
